Measured values published in patent US20100068807.

Target: GST fusion IRF7 (GST fused to amino acids 422-457 of mouse IRF-7, from pGST-IRF7) [GST: P08515]

B1: 6myc-mIKKα (wild-type mouse IKKα with 6 myc tags, expressed from pSRα-6myc-mIKKα in 293T cells) (protein)
chain: MERPPGLRPGAGGPWEMRERLGTGGFGNVSLYQHRELDLKIAIKSCRLELSSKNRERWCHEIQIMKKLDHANVVKACDVPEELNFLINDVPLLAMEYCSGGDLRKLLNKPENCCGLKESQILSLLSDIGSGIRYLHENKIIHRDLKPENIVLQDVGGKTIHKIIDLGYAKDVDQGSLCTSFVGTLQYLAPELFENKPYTATVDYWSFGTMVFECIAGYRPFLHHLQPFTWHEKIKKKDPKCIFACEEMTGEVRFSSHLPQPNSLCSLIVEPMESWLQLMLNWDPQQRGGPIDLTLKQPRCFALMDHILNLKIVHILNMTSAKIISFLLPCDESLHSLQSRIERETGINTGSQELLSETGISLDPRKPASQCVLDGVRGCDSYMVYLFDKSKTVYEGPFASRSLSDCVNYIVQDSKIQLPIIQLRKVWAEAVHYVSGLKEDYSRLFQGQRAAMLSLLRYNANLTKMKNTLISASQQLKAKLEFFRKSIQLDLERYSEQMTYGISSEKMLKAWKEMEEKAIHYSEVGVIGYLEDQIMSLHTEIMELQKSPYGRRQGDLMESLEQRAIDLYKQLKHRPPDHLYSDSTEMVKIIVHTVQSQDRVLKELFGHLSKLLGCKQKIIDLLPKVEVALSNIKEADNTVMFMQGKRQKEIWHLLKIACTQSSARSLVGSSLEGTVTPPVSAWLPPTLADREHPLTCVVTPQDGETLAQMIEENLNCLGHLSTIIREANEDQSSSLMSLDWSWLAE
phosphorylation of substrate (in vitro kinase assay with [γ-32P]ATP, SDS-PAGE and autoradiography): IRF7 was phosphorylated by IKKα
